From patent publication US20120046222A1

Target: GLP-1 receptor (UniProt P32301)
Assay: cell-based or functional assay

## dAla^2,Pro^3,Leu^14,Phe^25-exendin-4 (1-28) amide (from UniProt P26349) (peptide)
  Cyclase GLP-1 Receptor EC50: 0.029 nM

## dAla^2,Pro^3-exendin-4 amide (from UniProt P26349 48-86) (peptide)
  Cyclase GLP-1 Receptor EC50: 0.004 nM
